Test results reported in US20240075137A1 (COMPUGEN, published 2024).
Like-named read-outs stand apart in the source and are kept apart here.

B1: CHA.7.544 (antibody, V domains shown)
VH: QVQLKESGPGLVAPSQSLSITCTVSGFSLTSYAITWVRQPPGKGLEWLGVIWPGGGTNYNSALKSRLSISKDNSKSHLFLKMNSLQTDDTARYYCVRSYDGYLDWYFDVWGTGTTVTVSS
VL: NIVMTQSPKSMSMSVGERVTLSCKASENVGTYVSWYQQKPDQSPKLLIYGASNRYTGVPDRFTGSGSATDFTLIISSVQAEDLSDYHCGQSYSYPYTFGGGTKLEII
B2: CHA.7.510 (antibody, V domains shown)
VH: QVTLKESGPGILQPSQTLSLTCSFSGFSLNTSGTGVGWIRQPSGKGLEWLTHIWWNDNKFYNTFLKSRLTISKETSNNQVFLKIASVDTADAATYYCARMAYGNLWFVNWGQGTLVAVST
VL: DIVLTQSPASLAVSLGQRASISCRASRSVTISGYSYMYWYQQKPGQPPRLLFYLASNLASGVPARFSGSGSGTDFTLNIHPVEEEDAAIYYCQHSRELPYTFGGGTKLEIK
B3: CHA.7.512 (antibody, V domains shown)
VH: QIQLVQSGPELKKPRETVKISCKASGYTFTDYSMHWVKQAPGKGLKWMGWINTETGEPTYADDFKGRFAFSLEASASSAYLQINILKDEDTATYFCARSRGGYYEDYYALDYWGQGTSVTVSS
VL: DIQMTQSPASLSASVGESVTITCRASGNIHYYLAWYQQKQGKSPQLLVYNAKNLADGVPSRFSGSGSGTQFSLKINSLQPEDFGSYYCQHFWISPPTFGGGTKLEIK
B4: CHA.7.522 (antibody, V domains shown)
VH: QVQLQQPGSELVRPGTSVKLSCKASGYTFTSYWVHWVRQRHGQGLEWIGNVYPGSGSTNYDEKFKSKGTLTVDTSSSTAYMHLSSLTSEDSAVYYCTRGVLRFPLDYWGQGTTLTVSS
VL: DIVMTQAAPSVPVTPGESVSISCRSSKSLLHSNGNTYLYWFLQRPGQSPHLLIYRMSNLASGVPDRFSGSGSGTAFTLRISRVEAEDVGVYYCMQHLEYPLTFGAGTKLELK
B5: CHA.7.514 (antibody, V domains shown)
VH: EVQLRQSGADLVKPGASVKLSCTASGFNIKDTYIDWVKQRPEQGLDWIGRIDPANGNTKYDPKFQGKATIITDTSSNTAYLQLSNLTSEDTAVYYCARYGSYPYFDYWGRGTTLAVSS
VL: SIVMTQTPKFLLISAGDRVTITCKASQSVRNDVAWYQQKPGQSPKLLMYYASNRYTGVPDRFTGSGYGTDFTFTISTVQAEDLAVYFCQQDYSSPPTFGGGTKLEIK
B6: CHA.7.516 (antibody, V domains shown)
VH: QVQLQQSGPELVRPGVSVKISCKVSGYTFTDYVMHWVKQSHAKSLEWIGIISPYSGNTNYNQNFKGKATMTVDKSSSTAYMALARLTSEDSAIYYCAREGDLPMFAYWGQGTLVTVSA
VL: QIVLTQSPTIMSASPGEKVTMTCSASSSVSYIYWYQQNPGSSPRLLIYDTSILASGVPFRFSGSGSGTSYSLTISRMEAEDAATYYCQQWTSYPLTFGSGTKLELK
B7: CHA.7.524 (antibody, V domains shown)
VH: QVQLQQSGPEVVRPGVSVKISCKGSGYKFPDYVMHWVKQSHAKSLEWIGIISIYSGNTNYNQKFKGKATMTVDKSSSTAYMELARLTSEDSAIYYCAREGDLPMFAYWGQGTLVTVSA
VL: QIVLTQSPAIMSASPGEKVTMTCNASSSVSYMYWYQQKPISSPRLLIYDTSNLASGVPVRFSGSGSGTSYSLTIGRMEAEDAATYYCQQWSSYPLTFGAGTKVEVK

Experiments:
human PVRIG on cells [1] = biological target: T1, human PVRIG on cells (human, UniProt Q6DKI7 1-326); experiment: FACS, Jurkat cells, relative to control, 3.3ug/ml
T1 construct: whole, on cells; over-expressed on HEK cells or endogenous on Jurkat and CD8 T cells; also called hPVRIG; HEK hPVRIG cells
T1 sequence (looked up): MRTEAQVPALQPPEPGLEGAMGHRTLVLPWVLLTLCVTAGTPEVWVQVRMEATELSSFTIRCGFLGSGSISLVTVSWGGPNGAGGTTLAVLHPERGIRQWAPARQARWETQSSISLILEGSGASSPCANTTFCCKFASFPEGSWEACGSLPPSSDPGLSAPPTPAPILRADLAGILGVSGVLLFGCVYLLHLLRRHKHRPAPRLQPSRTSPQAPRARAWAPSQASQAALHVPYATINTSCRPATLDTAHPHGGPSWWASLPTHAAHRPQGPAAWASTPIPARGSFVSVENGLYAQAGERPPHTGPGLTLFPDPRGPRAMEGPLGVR

human PVRIG on cells [2] = biological target: T1, human PVRIG on cells; experiment: FACS, human PBMC, CD8+ T cells, 10ug/ml
human PVRIG on cells [3] = biological target: T1, human PVRIG on cells; experiment: FACS, HEK hPVRIG over HEK parental cells, 3.3ug/ml
[4] = biological target: T2, cynomolgus PVRIG on cells (cynomolgus, UniProt A0A2K5WVV8 41-322); experiment: FACS, expi cPVRIG over expi parental cells, 3.3ug/ml
T2 construct: whole, on cells; also called cPVRIG; expi cPVRIG cells
T2 sequence: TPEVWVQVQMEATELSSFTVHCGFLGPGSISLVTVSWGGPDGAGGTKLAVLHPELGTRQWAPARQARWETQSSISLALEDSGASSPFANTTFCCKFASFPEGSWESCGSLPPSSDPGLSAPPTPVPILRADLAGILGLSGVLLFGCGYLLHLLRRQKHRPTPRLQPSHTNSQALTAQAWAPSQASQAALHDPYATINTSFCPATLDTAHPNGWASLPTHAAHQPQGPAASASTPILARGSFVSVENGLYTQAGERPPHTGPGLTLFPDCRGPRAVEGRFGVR

human PVRIG on cells [5] = biological target: T1, human PVRIG on cells; experiment: FACS, HEK hPVRIG cells (HEK OE)
human PVRIG on cells [6] = biological target: T1, human PVRIG on cells; experiment: FACS, human PBMC, CD8+ T cells, 10ug/ml; remark: listed apart in the source
[7] = biological target: T2, cynomolgus PVRIG on cells; experiment: FACS, expi cPVRIG over expi parental cells, 3.3ug/ml; remark: listed apart in the source
human PVRIG on cells [8] = biological target: T1, human PVRIG on cells; experiment: FACS, human PBMC, CD56 int. NK cells, 10ug/ml
human PVRIG on cells [9] = biological target: T1, human PVRIG on cells; experiment: FACS, human PBMC, CD56 int. NK cells, 10ug/ml; remark: listed apart in the source
human PVRIG on cells [10] = biological target: T1, human PVRIG on cells; experiment: FACS, human PBMC, CD8+ T cells, 10ug/ml; remark: listed apart in the source
[11] = biological target: T3, PVRIG (FACS-based competition assay of FIGS. 7 and 15) (Homo sapiens, UniProt Q6DKI7); experiment: FACS-based competition assay of PVRIG blocking; format and competitor not given
T3 construct: made because the format of the assay is only described in U.S. Ser. No. 15/048,967; also called human PVRIG
T3 sequence (receptor, looked up): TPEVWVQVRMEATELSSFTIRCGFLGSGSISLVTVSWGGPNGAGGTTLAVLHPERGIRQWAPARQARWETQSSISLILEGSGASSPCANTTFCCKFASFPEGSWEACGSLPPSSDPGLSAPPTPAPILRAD

human PVRIG on cells [12] = biological target: T1, human PVRIG on cells; experiment: FACS, HEK hPVRIG over HEK parental cells, 3.3ug/ml; remark: listed apart in the source
human PVRIG on cells [13] = biological target: T1, human PVRIG on cells; experiment: FACS, HEK hPVRIG cells (HEK OE); remark: listed apart in the source
[14] = biological target: T2, cynomolgus PVRIG on cells; experiment: FACS, expi cPVRIG over expi parental cells, 3.3ug/ml; remark: listed apart in the source
human PVRIG on cells [15] = biological target: T1, human PVRIG on cells; experiment: FACS, Jurkat cells, relative to control, 3.3ug/ml; remark: listed apart in the source
[16] = biological target: T3, PVRIG (FACS-based competition assay of …); experiment: FACS-based competition assay of PVRIG blocking; format and competitor not given; remark: listed apart in the source
human PVRIG on cells [17] = biological target: T1, human PVRIG on cells; experiment: FACS, human PBMC, CD56 int. NK cells, 10ug/ml; remark: listed apart in the source
[18] = biological target: T2, cynomolgus PVRIG on cells; experiment: FACS, cyno PBMC, CD8+ T cells, 10ug/ml
[19] = biological target: T2, cynomolgus PVRIG on cells; experiment: FACS, cyno PBMC, NK cells, 10ug/ml
[20] = biological target: T2, cynomolgus PVRIG on cells; experiment: FACS, cyno PBMC, CD8+ T cells, 10ug/ml; remark: listed apart in the source
[21] = biological target: T2, cynomolgus PVRIG on cells; experiment: FACS, cyno PBMC, NK cells, 10ug/ml; remark: listed apart in the source

Binder | gMFIr Human CD8+ T cells (human PVRIG on cells [6]) | gMFIr Expi cyno OE/par [7] | gMFIr Human CD56 int. NK (human PVRIG on cells [9]) | gMFIr Human CD8+ T cells (human PVRIG on cells [10]) | IC50 [11] [nM] | gMFIr HEK OE/par (human PVRIG on cells [12]) | EC50 (human PVRIG on cells [13]) [nM] | gMFIr Expi cyno OE/par [14] | gMFIr Jurkat (human PVRIG on cells [15]) | IC50 [16] [nM] | gMFIr Human CD56 int. NK (human PVRIG on cells [17]) | also measured
B1 | 2.54 | 61.1 | 2.36 | – | – | – | – | – | – | – | – | gMFIr Jurkat (human PVRIG on cells [1]): 5.68; gMFIr Human CD8+ T cells (human PVRIG on cells [2]): 2.54; gMFIr HEK OE/par (human PVRIG on cells [3]): 42.6; gMFIr Expi cyno OE/par [4]: 61.1; EC50 (human PVRIG on cells [5]): 0.76 nM; gMFIr Human CD56 int. NK (human PVRIG on cells [8]): 2.36
B2 | 2.73 | 38.2 | 3.13 | 2.73 | 55 | 16.3 | 92.8 | 38.2 | 4.19 | 55 | 3.13 | –
B3 | 1.15 | 8.96 | 1.3 | 1.15 | 840 | 5.12 | 53 | 8.96 | 1.47 | 840 | 1.3 | –
B4 | 1.9 | 27.2 | 2.06 | 1.9 | 50.5 | 10.1 | 91.4 | 27.2 | 2.99 | 50.5 | 2.06 | –
B5 | 5.15 | 65.2 | 4.16 | 5.15 | 38.9 | 49.8 | 5.31 | 65.2 | 7.67 | 38.9 | 4.16 | –
B6 | 4.09 | 60 | 4.22 | 4.09 | 33.1 | 37.9 | 0.79 | 60 | 5.73 | 33.1 | 4.22 | gMFIr Cyno CD8+ T cells [18]: 2.09; gMFIr Cyno NK cells [19]: 1.76
B7 | 6.12 | 66.3 | 5.5 | – | 30.2 | 48.3 | 0.46 | – | 7.87 | 30.2 | – | gMFIr Cyno CD8+ T cells [18]: 2.02; gMFIr Cyno CD8+ T cells [20]: 2.02; gMFIr Cyno NK cells [21]: 1.78; gMFIr Human CD8+ T cells (human PVRIG on cells [2]): 6.12; gMFIr Expi cyno OE/par [4]: 66.3; gMFIr Cyno NK cells [19]: 1.78; gMFIr Human CD56 int. NK (human PVRIG on cells [8]): 5.5
